Test results: PMC7771633 (Cell, 2020)

B1: HENV-26, human monoclonal antibody, IgG (antibody, V domains shown)
VH: EVQLLESGGGLIQPGGSLRLSCAASGFTFSRFTMSWVRQPPGKGPEWVSGISGSGGHTYYADSVKGRFTISRDNSKNTLYLQMNSLKAEDTAVYYCAKDGFVGQQLMRRGPWWFDPWGQGTLVTVSS
VL: SYVLTQPPSVSVAPGQTARISCGGNNIGNKGVHWYQQKPGQAPVVVVYDDSDRPSGIPERFSGSNSGNTATLTISRVEAGDEADYYCQVWDSSSDHVVFGGGTKLTVL
B2: HENV-32, human monoclonal antibody, IgG (antibody, V domains shown)
VH: QVQLVQSGAEVKKPGSSVKVSCKVSGGIFNRETINWVRQAPGQGLEWMGRITPIVDVPNYPRKFRGRVTITADKSTSTVYMELSGLRFEDTAIYFCARFRGHNYFDPWGQGTLVTVSS
VL: SYVLTQPPSVSVAPGQTARITCGGNNIGGKSVHWYQQKPGQAPVLVVYDDRDRPSGIPERFSGSNSGDTASLTISRVDAGDEADYFCQVWDNASDEAVFGGGTKLTVL
B3: HENV-32 Fab (Fab, V domains shown)
VH: B2 VH
VL: B2 VL

Legend:
[1] = target: T1, HeV-RBP head domain (Hendra virus receptor binding protein, residues 185 – 604) (Hendra virus, UniProt O89343); test: ELISA
[2] = target: full-length NiVB RBP expressed on the surface of mammalian cells (Nipah virus, strain Bangladesh, UniProt Q4VCP5, strain); test: flow cytometry on cells
[3] = target: full-length HeV-RBP expressed on the surface of mammalian cells (Hendra virus, UniProt O89343); test: cell-based or functional assay
[4] = target: full-length NiVM RBP expressed on the surface of mammalian cells (Nipah virus, strain Malaysia, UniProt Q9IH62); test: cell-based or functional assay
[5] = target: T1, HeV-RBP head domain (Hendra virus …); test: BLI

T1 sequence (O89343 185-604): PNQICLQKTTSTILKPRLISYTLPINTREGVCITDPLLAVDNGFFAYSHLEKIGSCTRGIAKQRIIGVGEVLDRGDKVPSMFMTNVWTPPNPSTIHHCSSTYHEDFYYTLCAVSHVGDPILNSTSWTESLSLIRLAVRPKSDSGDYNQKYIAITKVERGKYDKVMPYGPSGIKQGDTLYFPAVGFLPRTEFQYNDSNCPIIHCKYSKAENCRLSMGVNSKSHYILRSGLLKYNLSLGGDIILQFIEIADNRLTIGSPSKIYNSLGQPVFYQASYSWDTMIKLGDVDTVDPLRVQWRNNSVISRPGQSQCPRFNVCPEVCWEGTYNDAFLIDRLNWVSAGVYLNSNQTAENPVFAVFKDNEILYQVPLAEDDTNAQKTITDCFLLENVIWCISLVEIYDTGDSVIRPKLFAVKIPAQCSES
Chain of full-length HeV-RBP expressed on the surface of mammalian cells (O89343 whole entry): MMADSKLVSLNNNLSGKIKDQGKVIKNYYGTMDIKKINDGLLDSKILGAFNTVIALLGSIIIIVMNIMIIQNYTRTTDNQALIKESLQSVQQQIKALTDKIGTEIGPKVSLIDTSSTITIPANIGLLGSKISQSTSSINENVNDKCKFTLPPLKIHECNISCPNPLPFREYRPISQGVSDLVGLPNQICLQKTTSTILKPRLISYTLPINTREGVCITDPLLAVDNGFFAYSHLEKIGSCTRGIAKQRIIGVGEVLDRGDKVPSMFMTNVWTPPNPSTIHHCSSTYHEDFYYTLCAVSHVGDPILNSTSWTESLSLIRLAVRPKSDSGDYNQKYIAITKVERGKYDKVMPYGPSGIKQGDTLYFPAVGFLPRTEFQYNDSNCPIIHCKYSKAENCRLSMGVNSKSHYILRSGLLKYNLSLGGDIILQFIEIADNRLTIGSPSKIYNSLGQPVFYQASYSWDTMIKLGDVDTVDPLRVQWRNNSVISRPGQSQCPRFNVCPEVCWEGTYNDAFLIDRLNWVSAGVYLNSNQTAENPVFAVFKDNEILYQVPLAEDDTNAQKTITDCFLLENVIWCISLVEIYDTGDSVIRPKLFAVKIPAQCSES
Chain of full-length NiVM RBP expressed on the surface of mammalian cells (Q9IH62 whole entry, the tested form may be a part): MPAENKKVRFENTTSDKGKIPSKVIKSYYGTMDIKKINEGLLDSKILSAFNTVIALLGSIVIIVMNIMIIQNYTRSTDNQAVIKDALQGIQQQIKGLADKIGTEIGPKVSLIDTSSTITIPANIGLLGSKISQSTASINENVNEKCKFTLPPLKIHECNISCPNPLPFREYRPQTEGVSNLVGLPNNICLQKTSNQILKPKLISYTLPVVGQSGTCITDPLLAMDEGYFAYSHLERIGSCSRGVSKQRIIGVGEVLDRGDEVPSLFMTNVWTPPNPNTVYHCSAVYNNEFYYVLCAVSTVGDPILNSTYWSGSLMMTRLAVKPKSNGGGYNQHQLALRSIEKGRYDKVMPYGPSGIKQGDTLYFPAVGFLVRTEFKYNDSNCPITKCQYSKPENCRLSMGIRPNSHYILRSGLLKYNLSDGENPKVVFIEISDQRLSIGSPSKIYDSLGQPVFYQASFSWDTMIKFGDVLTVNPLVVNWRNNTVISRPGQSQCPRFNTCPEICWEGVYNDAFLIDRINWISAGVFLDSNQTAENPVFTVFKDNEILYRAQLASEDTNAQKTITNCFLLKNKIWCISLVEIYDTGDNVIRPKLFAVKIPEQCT

Row | Binder | Area under the curve [1] | binding result [2] | IC50 of neutralization of HeV (plaque reduction assay) [3] [µg/mL] | IC50 of neutralization of NiVM (plaque reduction assay) [4] [µg/mL] | Kd [5] [nM]
1 | B1 | 5.39 | binds |  |  | 
2 | B2 | 3.71 |  | 0.27 | 0.31 | 
3 | B3 |  |  |  |  | 2.1
